Target: myc-tagged Trpc1 (transient receptor potential canonical subfamily member 1) (X. laevis)
Test: co-IP; mRNAs co-injected into 4-cell stage X. laevis embryos (200 pg/cell each); 12 animal caps (stage 8-9) lysed in SOFT buffer (50 mM Tris pH 7.4, 100 mM NaCl, 5 mM EDTA, 0.05% NP40, 1% Triton X100); 120 µg protein precipitated with anti-HA or anti-Myc antibodies and A/G protein beads; blots with anti-HA and anti-Myc; animal caps with or without 2 µg/mL noggin for 15 min before lysis

fold change of the co-immunoprecipitated fraction with noggin against without noggin: 1.64 fold
Substance: HA-tagged BMP receptor type II, full length

— article PMC6831629
